From US20250277045A1 (KEYMED BIOSCIENCES, published 2025) come the findings set out here.

For experiment [1], the target named is T1, human CD3 on T cells (Jurkat cells; human peripheral blood CD4+ and CD8+ T cells) (human, UniProt P07766 23-207).
T1 construct: whole, on cells; also called CD3ε
Nature of the experiment: flow cytometry, Jurkat cells. Here is the method: Jurkat cells in the logarithmic growth phase were added with 200 μg/mL murine IgG (Jackson ImmunoResearch, 115-005-03) and incubated on ice for 30 min. […] 50 μL/well Alexa Fluro647 labeled goat anti-human IgG Fc (1:300 dilution) was added to the secondary antibody, incubated on ice for 20 min, 50 μL/well PI was added after washing once, incubated for 5 min, and flow cytometer (BD C6) was used to perform detection.
A general note: Flow cytometry measures light scatter and fluorescence of single cells or particles in a stream.

Experiment [2] has as its target T2, human BCMA on cells (CHO-hBCMA clone 2C2; NCI-H929; RPMI-8226) (human, UniProt Q02223 1-184).
T2 construct: whole, on cells; also called Human BCMA-CHO; CHO-hBCMA-2C2
T2 sequence (looked up): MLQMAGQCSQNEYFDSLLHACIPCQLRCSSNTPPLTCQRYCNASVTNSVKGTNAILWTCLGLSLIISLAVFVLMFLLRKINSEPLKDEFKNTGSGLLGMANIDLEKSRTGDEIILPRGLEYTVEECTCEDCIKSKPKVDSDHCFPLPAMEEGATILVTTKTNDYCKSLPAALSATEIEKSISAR
Nature of the experiment: flow cytometry, NCI-H929 cells. As to the method:
(§1) The primary antibody was washed off, 50 μL/well Alexa Fluro647 labeled goat anti-human IgG Fc (1:300 dilution) was added, incubated on ice for 20 min, 50 μL/well PI was added after washing once, incubated for 5 min, and flow cytometer was used to perform detection.

Experiment [3] concerns the target T2, human BCMA on cells (CHO-hBCMA clone …). Nature of the experiment: flow cytometry, RPMI-8226 cells. As to the method:
as §1

For experiment [4] the target is unchanged. In words: flow cytometry, CHO-human BCMA cells. As to the method:
(§2) 50 μL/well Alexa Fluro647 labeled goat anti-human IgG Fc (1:300 dilution) was added to the secondary antibody, incubated on ice for 20 min, 50 μL/well PI solution (1:300) was added after washing once, incubated for 5 min, and flow cytometer was used to perform detection.

Experiment [5] addresses T3, cynomolgus monkey BCMA on CHO cells (CHO-cynoBCMA clone 1A2) (cynomolgus monkey, UniProt A0A2K5UD97 1-183).
T3 construct: whole, on cells; also called Cynomolgus monkey BCMA-CHO; CHO-cynoBCMA-1A2
In words: flow cytometry, CHO-cynomolgus monkey BCMA cells. Here is the method:
as §2

Experiment [6] addresses T1, human CD3 on T cells (Jurkat cells; …). Nature of the experiment: flow cytometry, peripheral blood CD4+ T cells (PBMC). As to the method:
(§3) Fresh human or cynomolgus monkey peripheral blood was taken and PBMC was isolated by Ficoll-Paque Plu (GE, 17-1440-03). […] 50 μL/well Alexa Fluro647 labeled goat anti-human IgG Fc (1:300 dilution) was added to the secondary antibody, ice bath for 20 min, 50 μL/well PI was added after washing once, incubated for 5 min, and flow cytometer (BD C6) was used to perform detection.

Experiment [7] has the same target. Nature of the experiment: flow cytometry, peripheral blood CD8+ T cells (PBMC). As to the method:
as §3

Experiment [8] deals with T4, human BCMA recombinant antigen (human, UniProt Q02223 1-53).
T4 construct: range 1-53; also called human BCMA recombinant protein
T4 sequence (looked up): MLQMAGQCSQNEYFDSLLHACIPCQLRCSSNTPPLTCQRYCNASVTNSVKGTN
Nature of the experiment: SPR (Biacore T200), antigen amine-coupled to CM5, antibody as analyte, 1:1 model. Here is the method: (§4) 10 μg/mL human or cynomolgus monkey BCMA or CD3εγ recombinant antigen was bound to a CM5 chip (GE healthcare) by amino coupling, controlling the amount of antigen bound to approximately 200 RU. After the baseline plateau, gradient-diluted antibodies (from 10 μg/mL, 2-fold dilutions for 7 gradients) flowed through the chip at a flow rate of 30 μL/min for a binding time of 350 seconds and a dissociation time of 600 seconds. Kinetic constants were fitted using Biacore T200 evaluation software with a 1:1 binding model.
Background: Surface plasmon resonance follows binding to a sensor surface in real time, without labels.

For experiment [9], the target named is T5, cynomolgus monkey BCMA recombinant antigen (cynomolgus monkey, UniProt A0A2K5UD97 1-51).
T5 construct: range 1-52
T5 sequence (A0A2K5UD97 entry or part of it): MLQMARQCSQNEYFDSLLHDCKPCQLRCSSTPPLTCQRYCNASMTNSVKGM
The description is as above. As to the method:
as §4

Experiment [10] has as its target T6, cynomolgus monkey CD3εγ-Fc heterodimer (cynomolgus monkey).
T6 chain 1: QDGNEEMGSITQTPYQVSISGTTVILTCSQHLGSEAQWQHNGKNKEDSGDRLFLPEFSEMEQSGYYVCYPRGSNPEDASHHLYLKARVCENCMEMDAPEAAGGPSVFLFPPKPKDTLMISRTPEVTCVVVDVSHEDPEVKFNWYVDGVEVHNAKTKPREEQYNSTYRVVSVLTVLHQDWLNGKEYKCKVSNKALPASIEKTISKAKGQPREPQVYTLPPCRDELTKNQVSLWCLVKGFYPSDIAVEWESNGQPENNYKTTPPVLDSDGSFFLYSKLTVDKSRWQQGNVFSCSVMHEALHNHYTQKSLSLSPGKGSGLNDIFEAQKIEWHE
T6 chain 2: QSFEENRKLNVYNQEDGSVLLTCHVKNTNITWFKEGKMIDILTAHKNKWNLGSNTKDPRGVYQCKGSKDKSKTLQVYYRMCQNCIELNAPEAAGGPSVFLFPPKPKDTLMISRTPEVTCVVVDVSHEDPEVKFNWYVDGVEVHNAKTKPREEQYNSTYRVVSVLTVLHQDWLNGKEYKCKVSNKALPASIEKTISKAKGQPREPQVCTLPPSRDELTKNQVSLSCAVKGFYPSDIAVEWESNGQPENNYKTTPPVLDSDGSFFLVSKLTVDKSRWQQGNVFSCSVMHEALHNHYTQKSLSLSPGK
The experiment is described as above. Here is the method:
as §4

Experiment [11] deals with T4, human BCMA recombinant antigen. Nature of the experiment: competition ELISA, coated human BCMA, antibody varied, then biotinylated human APRIL at 240 ng/mL, SA-HRP. As to the method: 1 μg/mL human BCMA recombinant antigen was prepared with pH 9.6 carbonic acid buffer, added to a maxisorp96-well plate, and coated overnight at 4° C. After blocking with 5% skim milk/PBS for 1 h at room temperature, 50 μL antibody per well (4-fold dilution from 30 μg/mL for a total of 10 gradients) was added and incubated for 30 min at room temperature. […] After 3 washes with 0.05% PBST (PBS+0.05% Tween-20) and PBS respectively, 100 μL of SA-HRP (diluted 1:8000) was added to each well and incubated at room temperature for 45 min. Washing 3 times with 0.05% PBST and PBS respectively, 100 μL TMB color-developing solution was added into each well, after 10 min, 50 μL concentrated sulfuric acid was added into each well to stop the reaction, read OD450 nm by a microplate reader, and perform three-parameter fitting curve using Graphpad software.

T1 sequence (P07766 23-207): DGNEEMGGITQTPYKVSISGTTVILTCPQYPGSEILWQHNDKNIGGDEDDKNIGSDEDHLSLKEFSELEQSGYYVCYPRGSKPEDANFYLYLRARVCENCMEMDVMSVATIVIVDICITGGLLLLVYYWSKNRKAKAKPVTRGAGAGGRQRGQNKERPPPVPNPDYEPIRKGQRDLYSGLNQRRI
T3 sequence (A0A2K5UD97 entry or part of it): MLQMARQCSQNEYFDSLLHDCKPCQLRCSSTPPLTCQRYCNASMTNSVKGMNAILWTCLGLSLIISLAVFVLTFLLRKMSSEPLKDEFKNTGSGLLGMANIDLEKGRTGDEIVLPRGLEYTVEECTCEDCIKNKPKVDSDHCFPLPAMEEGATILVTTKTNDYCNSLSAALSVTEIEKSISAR

B1: BCMA×CD3 κλ003 (bispecific antibody, human IgG4 S228P, kappa, lambda)
light 1: DIVLTQSPASLAVSPGQRATITCRASKSVSTSGYSYMHWYQKKPGQPPKLLIYLASNLESGVPARFSGSGSGTDFTLTINPVEAEDTANYYCQHSRELPWTFGQGTKVEIKRTVAAPSVFIFPPSDEQLKSGTASVVCLLNNFYPREAKVQWKVDNALQSGNSQESVTEQDSKDSTYSLSSTLTLSKADYEKHKVYACEVTHQGLSSPVTKSFNRGEC
heavy 1: QVQLVQSGSELKKPGASVKVSCKASGYIFTNFGMNWVREAPGQGLEWMGWINTYTGEQIYADGFTGRFVFSLDTSASTAYLQISSLKAEDTAVYFCARGEIYYGYDVGFVYWGQGTLVTVSSASTKGPSVFPLAPCSRSTSESTAALGCLVKDYFPEPVTVSWNSGALTSGVHTFPAVLQSSGLYSLSSVVTVPSSSLGTKTYTCNVDHKPSNTKVDKRVESKYGPPCPPCPAPEFEGGPSVFLFPPKPKDTLMISRTPEVTCVVVDVSQEDPEVQFNWYVDGVEVHNAKTKPREEQFNSTYRVVSVLTVLHQDWLNGKEYKCKVSNKGLASSIEKTISKAKGQPREPQVCTLPPSQEEMTKNQVSLSCAVKGFYPSDIAVEWESNGQPENNYKTTPPVLDSDGSFFLVSKLTVDKSRWQEGNVFSCSVMHEALHNHYTQKSLSLSLGK
light 2: QAVVTQEPSLTVSPGGTVTLTCRSSTGAVTTSNYANWVQEKPGQAPRGLIGGTNKRAPWTPARFSGSLLGGKAALTITGAQAEDEAEYYCVLWYSNLWVFGGGTKLTVLGQPKAAPSVTLFPPSSEELQANKATLVCLISDFYPGAVTVAWKADSSPVKAGVETTTPSKQSNNKYAASSYLSLTPEQWKSHRSYSCQVTHEGSTVEKTVAPTECS
heavy 2: EVQLVESGGGLVQPGGSLRLSCAASGFTFNTYAMNWVRKAPGKGLEWVGRIRSKYNNYATYYADSVKDRFTISRDDSKNSLYLQMNSLKTEDTAVYYCVRHGNFGNSYVSWFAYWGQGTLVTVSSASTKGPSVFPLAPCSRSTSESTAALGCLVKDYFPEPVTVSWNSGALTSGVHTFPAVLQSSGLYSLSSVVTVPSSSLGTKTYTCNVDHKPSNTKVDKRVESKYGPPCPPCPAPEFEGGPSVFLFPPKPKDTLMISRTPEVTCVVVDVSQEDPEVQFNWYVDGVEVHNAKTKPREEQFNSTYRVVSVLTVLHQDWLNGKEYKCKVSNKGLASSIEKTISKAKGQPREPQVYTLPPCQEEMTKNQVSLWCLVKGFYPSDIAVEWESNGQPENNYKTTPPVLDSDGSFFLYSKLTVDKSRWQEGNVFSCSVMHEALHNHYTQKSLSLSLGK
A word on the EC50: it is the concentration that produces a half-maximal response. Usually Kd stands for the equilibrium constant for the complex coming apart. Consider B1, for which the EC50 in experiment [1] came out at 66 nM; in experiment [2], 34 nM; in experiment [3] it was 34 nM; in experiment [4], 16 nM; in experiment [5], 3 nM; in experiment [6], 87 nM. Besides, the 50% effective concentration (EC50) in experiment [7] came out at 97 nM. Moreover, the Kd in experiment [8] was 1.3 nM; in experiment [9], 0.16 nM; in [10], 43 nM. For the same molecule, the “IC50 (read off the curve)” value in experiment [11] is around 8 nM.

B2: BCMA×CD3 κλ004 (bispecific antibody, human IgG4 S228P, kappa, lambda)
light 1: DIVLTQSPASLAVSPGQRATITCRASKSVTTSGYSYIHWYQKKPGQPPKLLIYLASDLEAGVPARFSGSGSGTDFTLTINPVEAEDTANYYCQHSRELPWTFGQGTKVEIKRTVAAPSVFIFPPSDEQLKSGTASVVCLLNNFYPREAKVQWKVDNALQSGNSQESVTEQDSKDSTYSLSSTLTLSKADYEKHKVYACEVTHQGLSSPVTKSFNRGEC
heavy 1: QVQLVQSGSELKKPGASVKVSCKASGYIFTNFGMNWVREAPGQGLEWMGWINTYTGEQIYADGFTGRFVFSLDTSASTAYLQISSLKAEDTAVYFCARGEIYYGYDVGFVYWGQGTLVTVSSASTKGPSVFPLAPCSRSTSESTAALGCLVKDYFPEPVTVSWNSGALTSGVHTFPAVLQSSGLYSLSSVVTVPSSSLGTKTYTCNVDHKPSNTKVDKRVESKYGPPCPPCPAPEFEGGPSVFLFPPKPKDTLMISRTPEVTCVVVDVSQEDPEVQFNWYVDGVEVHNAKTKPREEQFNSTYRVVSVLTVLHQDWLNGKEYKCKVSNKGLASSIEKTISKAKGQPREPQVCTLPPSQEEMTKNQVSLSCAVKGFYPSDIAVEWESNGQPENNYKTTPPVLDSDGSFFLVSKLTVDKSRWQEGNVFSCSVMHEALHNHYTQKSLSLSLGK
light 2: QAVVTQEPSLTVSPGGTVTLTCRSSTGAVTTSNYANWVQEKPGQAPRGLIGGTNKRAPWTPARFSGSLLGGKAALTITGAQAEDEAEYYCVLWYSNLWVFGGGTKLTVLGQPKAAPSVTLFPPSSEELQANKATLVCLISDFYPGAVTVAWKADSSPVKAGVETTTPSKQSNNKYAASSYLSLTPEQWKSHRSYSCQVTHEGSTVEKTVAPTECS
heavy 2: EVQLVESGGGLVQPGGSLRLSCAASGFTFNTYAMNWVRKAPGKGLEWVGRIRSKYNNYATYYADSVKDRFTISRDDSKNSLYLQMNSLKTEDTAVYYCVRHGNFGNSYVSWFAYWGQGTLVTVSSASTKGPSVFPLAPCSRSTSESTAALGCLVKDYFPEPVTVSWNSGALTSGVHTFPAVLQSSGLYSLSSVVTVPSSSLGTKTYTCNVDHKPSNTKVDKRVESKYGPPCPPCPAPEFEGGPSVFLFPPKPKDTLMISRTPEVTCVVVDVSQEDPEVQFNWYVDGVEVHNAKTKPREEQFNSTYRVVSVLTVLHQDWLNGKEYKCKVSNKGLASSIEKTISKAKGQPREPQVYTLPPCQEEMTKNQVSLWCLVKGFYPSDIAVEWESNGQPENNYKTTPPVLDSDGSFFLYSKLTVDKSRWQEGNVFSCSVMHEALHNHYTQKSLSLSLGK
For B2, the half-maximal effective concentration (EC50) in experiment [1] was determined as 61 nM; in experiment [2] it was 36 nM; in experiment [3] it was 39 nM; in [4] it was 22 nM; in experiment [5], 3 nM; in [6], 77 nM. In experiment [7], the EC50 stood at 84 nM. Further, the values for the Kd in experiment [8], in experiment [9] and in [10] were 1 nM, 0.12 nM and 43 nM, respectively. Further, the “IC50 (read off the curve)” value in experiment [11] was around 5 nM.
